According to the supplement of paper PMC10724198:
± gives the standard deviation of the averaged measurements.

Tested on: Saccharomyces cerevisiae
Test: protein stability index of tFT-peptide fusion (C-terminal peptide) (PSI (0-1 scale)); higher = more stable (slower turnover)
Conditions: temperature: 30 C
Experimental: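 MPS profiling in S. cerevisiae of the yeast C-terminome library: the last 12 aa of each annotated ORF are fused to the C-terminus of a sfGFP-mCherry timer, after a GGGS linker. Cells are FACS-sorted into 8 mCherry/sfGFP bins and deep-sequenced. PSI runs from 0 (unstable) to 1 (stable); wild type and das1Δ backgrounds, two technical replicates each.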

[1] = genetic background: das1 deletion

## FQTITGEEKEKK [ECM16 C-terminal 12 aa]
[1]
  protein stability index: 0.708 ± 0.027
Genetic background: wild type
  protein stability index: 0.728 ± 0.023

## KIQWDIDPQLDG [SSY5 C-terminal 12 aa]
[1]
  protein stability index: 0.743 ± 0.033
Genetic background: wild type
  protein stability index: 0.723 ± 0.082

## NPVGVPNDDHHH [COX4 C-terminal 12 aa]
[1]
  protein stability index: 0.724 ± 0.0031
Genetic background: wild type
  protein stability index: 0.668 ± 0.022

## WEHAMRSRRHKR [SWC3 C-terminal 12 aa]
[1]
  protein stability index: 0.726 ± 0.0012
Genetic background: wild type
  protein stability index: 0.673 ± 0.027

## DTHTNEIIKKEI [HRQ1 C-terminal 12 aa]
[1]
  protein stability index: 0.6984 ± 0.004
Genetic background: wild type
  protein stability index: 0.695 ± 0.032

## FSALMGESDDEE [TIF4631 C-terminal 12 aa]
[1]
  protein stability index: 0.659 ± 0.019
Genetic background: wild type
  protein stability index: 0.678 ± 0.047

## KQAQEGTKNLKI [PAC10 C-terminal 12 aa]
[1]
  protein stability index: 0.714 ± 0.055
Genetic background: wild type
  protein stability index: 0.666 ± 0.029

## ISVSKKTLKSNW [HOP1 C-terminal 12 aa]
[1]
  protein stability index: 0.698 ± 0.011
Genetic background: wild type
  protein stability index: 0.686 ± 0.022

## LIDLCCSCAGGM [MNC1 C-terminal 12 aa]
[1]
  protein stability index: 0.685 ± 0.012
Genetic background: wild type
  protein stability index: 0.643 ± 0.0049

## SLYTLNYNVKNP [ATG17 C-terminal 12 aa]
[1]
  protein stability index: 0.7157 ± 0.0035
Genetic background: wild type
  protein stability index: 0.6907 ± 0.00092

## VKTLANEILNII [ECM11 C-terminal 12 aa]
[1]
  protein stability index: 0.6687 ± 0.0062
Genetic background: wild type
  protein stability index: 0.711 ± 0.0092

## DQFQLITQGIYS [PIK1 C-terminal 12 aa]
[1]
  protein stability index: 0.722 ± 0.034
Genetic background: wild type
  protein stability index: 0.717 ± 0.099

## ICCQVAKSLLKI [YGL074C C-terminal 12 aa]
[1]
  protein stability index: 0.656 ± 0.016
Genetic background: wild type
  protein stability index: 0.688 ± 0.027

## NFEKPCLIQDGK [FMP48 C-terminal 12 aa]
[1]
  protein stability index: 0.717 ± 0.051
Genetic background: wild type
  protein stability index: 0.706 ± 0.033

## NEERINSKIFKS [RCF2 C-terminal 12 aa]
[1]
  protein stability index: 0.716 ± 0.043
Genetic background: wild type
  protein stability index: 0.69629 ± 0.00022

## TKGGNAGTKAYN [RTC3 C-terminal 12 aa]
[1]
  protein stability index: 0.679 ± 0.011
Genetic background: wild type
  protein stability index: 0.666 ± 0.041

## VAFFKAVGATIM [YOR146W C-terminal 12 aa]
[1]
  protein stability index: 0.625 ± 0.011
Genetic background: wild type
  protein stability index: 0.627 ± 0.054

## FAGENFHHGDKL [ENO1 C-terminal 12 aa]
[1]
  protein stability index: 0.707 ± 0.016
Genetic background: wild type
  protein stability index: 0.706 ± 0.0078

## VDQLFEKASVLY [RPN6 C-terminal 12 aa]
[1]
  protein stability index: 0.68 ± 0.017
Genetic background: wild type
  protein stability index: 0.721 ± 0.03

## KEWKEKEKTGKQ [MPC1 C-terminal 12 aa]
[1]
  protein stability index: 0.728 ± 0.012
Genetic background: wild type
  protein stability index: 0.702 ± 0.022

## FLSNEPTFLGCV [YPL135C-A C-terminal 12 aa]
[1]
  protein stability index: 0.72 ± 0.018
Genetic background: wild type
  protein stability index: 0.722 ± 0.033

## ALNGDCCLWRWV [SWD3 C-terminal 12 aa]
[1]
  protein stability index: 0.708 ± 0.015
Genetic background: wild type
  protein stability index: 0.292 ± 0.013

## KRRPYVRAHAKW [YGR051C C-terminal 12 aa]
[1]
  protein stability index: 0.7089 ± 0.0043
Genetic background: wild type
  protein stability index: 0.698 ± 0.05

## SSLSFLSSFVDI [VAM10 C-terminal 12 aa]
[1]
  protein stability index: 0.708 ± 0.025
Genetic background: wild type
  protein stability index: 0.702 ± 0.048

## WHKHKTSSDKNI [YDR261C-D C-terminal 12 aa]
[1]
  protein stability index: 0.733 ± 0.02
Genetic background: wild type
  protein stability index: 0.749 ± 0.012

## VRADDLSTRFNI [RRP43 C-terminal 12 aa]
[1]
  protein stability index: 0.657 ± 0.0082
Genetic background: wild type
  protein stability index: 0.664 ± 0.017

## PLHFQLIWLPIF [YML099W-A C-terminal 12 aa]
[1]
  protein stability index: 0.5232 ± 0.00075
Genetic background: wild type
  protein stability index: 0.505 ± 0.012

## NDSDGTILIPDI [ZDS2 C-terminal 12 aa]
[1]
  protein stability index: 0.6982 ± 0.0057
Genetic background: wild type
  protein stability index: 0.713 ± 0.041

## GDENFVILEFEC [OAZ1 C-terminal 12 aa]
[1]
  protein stability index: 0.7 ± 0.019
Genetic background: wild type
  protein stability index: 0.732 ± 0.036

## LEFVRGGSRQFT [TIM44 C-terminal 12 aa]
[1]
  protein stability index: 0.689 ± 0.0081
Genetic background: wild type
  protein stability index: 0.713 ± 0.02

## QKIDNALKMTGR [YDR102C C-terminal 12 aa]
[1]
  protein stability index: 0.6896 ± 0.0062
Genetic background: wild type
  protein stability index: 0.705 ± 0.0095

## NDDDEDDDDFFD [SDD2 C-terminal 12 aa]
[1]
  protein stability index: 0.723 ± 0.015
Genetic background: wild type
  protein stability index: 0.6947 ± 0.0056

## ERNGWKFFFKEV [YHR137C-A C-terminal 12 aa]
[1]
  protein stability index: 0.69374 ± 0.00051
Genetic background: wild type
  protein stability index: 0.6597 ± 0.0014

## NTANRIIEELLK [UBC1 C-terminal 12 aa]
[1]
  protein stability index: 0.68955 ± 0.00029
Genetic background: wild type
  protein stability index: 0.67 ± 0.032

## RHQGQNIYRSGV [MCM5 C-terminal 12 aa]
[1]
  protein stability index: 0.682 ± 0.03
Genetic background: wild type
  protein stability index: 0.674 ± 0.022

## GKTTYSEVWAGY [VVS1 C-terminal 12 aa]
[1]
  protein stability index: 0.746 ± 0.04
Genetic background: wild type
  protein stability index: 0.741 ± 0.013

## HEWKTSINAIST [SWT1 C-terminal 12 aa]
[1]
  protein stability index: 0.6881 ± 0.0024
Genetic background: wild type
  protein stability index: 0.727 ± 0.079

## SSSLSLESFMKS [SNM1 C-terminal 12 aa]
[1]
  protein stability index: 0.748 ± 0.036
Genetic background: wild type
  protein stability index: 0.725 ± 0.019

## PSPTALANLARK [SGF29 C-terminal 12 aa]
[1]
  protein stability index: 0.677 ± 0.039
Genetic background: wild type
  protein stability index: 0.693 ± 0.041

## EINSDFIENFEE [MSH4 C-terminal 12 aa]
[1]
  protein stability index: 0.701 ± 0.017
Genetic background: wild type
  protein stability index: 0.699 ± 0.046

## LSRYTRVLLMFM [YBR178W C-terminal 12 aa]
[1]
  protein stability index: 0.632 ± 0.02
Genetic background: wild type
  protein stability index: 0.455 ± 0.014
